Ten molecules from publication PMC6954390, “Negative cooperativity between Gemin2 and RNA provides insights into RNA selection and the SMN complex's release in snRNP assembly” can be followed below.

Series [1] deals with T1, SmD1;SmD2;SmF;SmE;SmG (human;human;human;human;human, UniProt P62314;P62316;P62306;P62304;P62308 1-119;1-118;1-86;1-92;1-76, ||||). As to the kind of experiment: GFC; 5Sm without Gemin2; EMSA: 20 mM Tris-HCl pH 8.0, 250 mM NaCl, 2 mM MgCl2, 1 mM EDTA, 1 mM DTT, 37 C 40 min, RNA 50 pM and complex 2.5-10 pM as printed; GFC assembly assay conditions not in the material. The note with it: protein: recombinant;recombinant;recombinant;recombinant;recombinant, copies: 1;1;1;1;1. (In general: A gel shift assay detects complexes by their altered migration in electrophoresis.)

For series [2], the target named is T2, SmD1s (Sm fold);SmD2;SmF;SmE;SmG;Gemin2ΔN39;SMNGe2BD (human;human;human;human;human;human;huma …, UniProt P62314;P62316;P62306;P62304;P62308;O14893;Q16637 …, del83-119|||||del1-39|). Nature of the series: GFC; 7SΔN; EMSA: 20 mM Tris-HCl pH 8.0, 250 mM NaCl, 2 mM MgCl2, 1 mM EDTA, 1 mM DTT, 37 C 40 min, RNA 50 pM and complex 2.5-10 pM as printed; GFC assembly assay conditions not in the material. The note with it: protein: recombinant;recombinant;recombinant;recombinant;recombinant;recombinant;recombinant; copies: 1;1;1;1;1;1;1; single-stranded.

For series [3], the target named is T3, SmD1s (Sm fold);SmD2;SmF;SmE;SmG;SmD3 (Sm fold);SmB (Sm fold) (human;human;human;human;human;human;huma …, UniProt P62314;P62316;P62306;P62304;P62308;P62318;P14678 …, del83-119||||||). Nature of the series: GFC/SDS-PAGE; 7SΔN + SmD3/B input; complete core, Gemin2ΔN39/SMNGe2BD released; EMSA: 20 mM Tris-HCl pH 8.0, 250 mM NaCl, 2 mM MgCl2, 1 mM EDTA, 1 mM DTT, 37 C 40 min, RNA 50 pM and complex 2.5-10 pM as printed; GFC assembly assay conditions not in the material. As to conditions: protein: recombinant;recombinant;recombinant;recombinant;recombinant;recombinant;recombinant; copies: 1;1;1;1;1;1;1; stem-loops flank the Sm site.

Series [4] concerns the target T3, SmD1s (Sm fold);SmD2;SmF;SmE;SmG;SmD3 …. As to the kind of experiment: GFC/SDS-PAGE; 7SΔN + SmD3/B input; core formation to completion; EMSA: 20 mM Tris-HCl pH 8.0, 250 mM NaCl, 2 mM MgCl2, 1 mM EDTA, 1 mM DTT, 37 C 40 min, RNA 50 pM and complex 2.5-10 pM as printed; GFC assembly assay conditions not in the material. As to conditions: protein: recombinant;recombinant;recombinant;recombinant;recombinant;recombinant;recombinant; copies: 1;1;1;1;1;1;1; stem-loops; 3 nt spacer 5' of Sm site.

Series [5] concerns the target T2, SmD1s (Sm …). Nature of the series: GFC/SDS-PAGE; 7SΔN; EMSA: 20 mM Tris-HCl pH 8.0, 250 mM NaCl, 2 mM MgCl2, 1 mM EDTA, 1 mM DTT, 37 C 40 min, RNA 50 pM and complex 2.5-10 pM as printed; GFC assembly assay conditions not in the material. As to conditions: protein: recombinant;recombinant;recombinant;recombinant;recombinant;recombinant;recombinant, copies: 1;1;1;1;1;1;1.

For series [6], the target named is T1, SmD1;SmD2;SmF;SmE;SmG. As to the kind of experiment: GFC/SDS-PAGE; 5Sm without Gemin2; EMSA: 20 mM Tris-HCl pH 8.0, 250 mM NaCl, 2 mM MgCl2, 1 mM EDTA, 1 mM DTT, 37 C 40 min, RNA 50 pM and complex 2.5-10 pM as printed; GFC assembly assay conditions not in the material. As to conditions: protein: recombinant;recombinant;recombinant;recombinant;recombinant; copies: 1;1;1;1;1.

In series [7] the target is T2, SmD1s (Sm …). Nature of the series: GFC/SDS-PAGE; 7SΔN; Gemin2 starts to be released; EMSA: 20 mM Tris-HCl pH 8.0, 250 mM NaCl, 2 mM MgCl2, 1 mM EDTA, 1 mM DTT, 37 C 40 min, RNA 50 pM and complex 2.5-10 pM as printed; GFC assembly assay conditions not in the material. As to conditions: protein: recombinant;recombinant;recombinant;recombinant;recombinant;recombinant;recombinant; copies: 1;1;1;1;1;1;1; 3' stem-loop.

Series [8] concerns the target T2, SmD1s (Sm …). Nature of the series: EMSA; 7SΔN; Sm subcore formed; EMSA: 20 mM Tris-HCl pH 8.0, 250 mM NaCl, 2 mM MgCl2, 1 mM EDTA, 1 mM DTT, 37 C 40 min, RNA 50 pM and complex 2.5-10 pM as printed; GFC assembly assay conditions not in the material. As to conditions: protein: recombinant;recombinant;recombinant;recombinant;recombinant;recombinant;recombinant; copies: 1;1;1;1;1;1;1; 5' and 3' stem-loops flank the Sm site.

Substitutions are numbered along the chain they refer to.

Consider GGCAAUUUUUGACAGUCUCUACGGAGACUG (structured_RNA) [U4-5'Δ], for which the binding result in series [1] (3' stem-loop) is listed as “binds”.

With GGCAAUUUUUGACAGUCUCUACGCUCUGAC (ssRNA) [U4-5'Δ-3'ss], the binding result in series [2] is on record as “binds”.

B1: flU4 (structured_RNA)
RNA: GGGCAGCUUUGCGCAGUGGCAGUAUCGUAGCCAAUGAGGUCUAUCCGAGGCGCGAUUAUUGCUAAUUGAAAACUUUUCCCAAUACCCCGCCGUGACGACUUGCAAUAUAGUCGGCACUGGCAAUUUUUGACAGUCUCUACGGAGACUG
As to B1, in series [3], the binding result is reported as “binds”.

B2: flU4-spacer (structured_RNA)
RNA: B1 RNA with G119C, G120C, C121G
In the case of B2, in series [4], the binding result is listed as “binds”.

Consider AAUUUUUGA (ssRNA) [9nt Sm site], for which the binding result in series [1] (single-stranded) is reported as “binds”.

In the case of GGGAAUUGAAAACUUUUCCCAAUACCCCAAUUUUUGA (ssRNA) [3'Sm], the binding result in series [5] is “no binding”; in series [6], “binds”.

B3: U4-5'ss (structured_RNA)
RNA: GGGAAUUGAAAACUUUUCCCAAUACCCCAAUUUUUGACAGUCUCUACGGAGACUG
As for B3, the binding result in series [1] (3' stem-loop) and in series [7] was “binds” in each case.

B4: U4-3'Δ (structured_RNA)
RNA: GGGAAUUGAAAACUUUUCCCAAUACCCCGCCGUGACGACUUGCAAUAUAGUCGGCACUGGCAAUUUUUGAC
Take B4: the binding result in series [5] (5' stem-loop) is listed as “no binding”.

B5: U4 (structured_RNA)
RNA: GGGAAUUGAAAACUUUUCCCAAUACCCCGCCGUGACGACUUGCAAUAUAGUCGGCACUGGCAAUUUUUGACAGUCUCUACGGAGACUG
For the molecule B5, in series [8], the binding signal was roughly 2 fold vs 7S.

B6: U4ΔSm (structured_RNA)
RNA: B5 RNA with U64C, U65C, U66C, U67C, U68C
Take B6: the binding result in series [5] (5' and 3' stem-loops) was “no binding”.
